Measurements published in publication PMC2655680.
Where two headings read alike, the source gives them in different places.

What was measured:
[1] = target: PNK-FHA (FHA domain of human polynucleotide kinase 3'-phosphatase, amino acids 1-109) (human) (UniProt Q96T60); test: ITC
[2] = target: PNK-FHA (FHA domain of human polynucleotide kinase 3'-phosphatase, amino acids 1-109) (human) (UniProt Q96T60); test: ITC; remark: listed apart in the source

Substance | Kd [1] [µM] | stoichiometry N [1] | Kd [2] [µM]
XRCC1 peptide YAGSpTDENpTDSE, phosphorylated on Thr519 and Thr523 | 0.76 | 0.51 | 0.7
XRCC1 peptide YAGpSpTDENpTDSE, phosphorylated on Ser518, Thr519 and Thr523 | – | 0.46 | –
XRCC1 peptide YAGSTDENpTDSE, phosphorylated on Thr523 | 13.5 | – | –
XRCC1 peptide YAGSpTDENTDSE, phosphorylated on Thr519 | 10.6 | – | –
XRCC1 peptide YAGpSpTDENTDSE, phosphorylated on Ser518 and Thr519 | 1.23 | 0.51 | –
XRCC1 peptide YAGpSTDENpTDSE, phosphorylated on Ser518 and Thr523 | 24.2 | – | –
